Results: PMC4195775 (The EMBO Journal, 2014)
Ends that are not written are not given here.

B1: GST-NT (recombinant GST-fused girdin NT) (domain or fragment, human, UniProt Q3V6T2 1-256, looked up)
chain: MENEIFTPLLEQFMTSPLVTWVKTFGPLAAGNGTNLDEYVALVDGVFLNQVMLQINPKLESQRVNKKVNNDASLRMHNLSILVRQIKFYYQETLQQLIMMSLPNVLIIGKNPFSEQGTEEVKKLLLLLLGCAVQCQKKEEFIERIQGLDFDTKAAVAAHIQEVTHNQENVFDLQWMEVTDMSQEDIEPLLKNMALHLKRLIDERDEHSETIIELSEERDGLHFLPHASSSAQSPCGSPGMKRTESRQHLSVELADA

How the values were obtained:
[1] = target: B1; experiment: in vitro binding assay
[2] = target: EGFRc-His (EGFR cytoplasmic domain, 669-1210) (UniProt P00533 669-1210); experiment: pull-down

Binder	binding result [1]	binding result [2]
KLLMIIHDRREFAKFEKEKMNAKWDTGENPIYKSAVTTVVNPKYEGK (domain or fragment, UniProt P05556 752-798, looked up, also: His tag, position and length not given here) [ITGB1c-His (integrin β1 cytoplasmic domain, 752-798)]	binds	–
B1	–	binds
